From patent US20170340751A1

Key:
[1] = molecular target: SIINFEKL/MHC-I complex on DC2.4 cells (mouse) (UniProt P01901); test: flow cytometry of DC2.4 cells incubated 13 h with OVA antigen fusion protein (SEQ ID NO: 3), PE-25.D1-16 at 0.6 ug/ml
[2] = molecular target: SIINFEKL/MHC-I complex on DC2.4 cells (mouse) (UniProt P01901); test: flow cytometry of DC2.4 cells loaded with SIINFEKL peptide (positive control), PE-25.D1-16 at 0.6 ug/ml

PE-labeled monoclonal antibody 25.D1-16
percent of cells positively stained [1]: 17.6% | percent of cells positively stained [2]: > 80%
